According to the supplement of paper PMC9170038:

How the values were obtained:
MS2 coat protein [1] = experiment: apparent KD of MS2 coat protein; designed switch direction (-1 OFF switch, 1 ON switch): -1; higher = weaker reporter binding; details: Eterna round: R98
Procedure: (§1)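 RNA-MaP: designed FMN/MS2 RNA switches (84 nt design region) are transcribed on-chip within common flanks and titrated with SNAP-549-labelled MS2 coat protein (about 1-3000 nM) in 100 mM Tris pH 7.5, 80 mM KCl, 4 mM MgCl2, without or with 200 uM FMN. Median apparent KD per design; activation ratio = KD,OFF / KD,ON.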

MS2 coat protein [2] = experiment: apparent KD of MS2 coat protein; higher = weaker reporter binding; details: Eterna round: R101
Procedure: as §1

Sequence | apparent KD of MS2 coat protein (MS2 coat protein [1]; input ligand: FMN 200 uM) [nM] | apparent KD of MS2 coat protein (MS2 coat protein [1]; input ligand: none) [nM] | apparent KD of MS2 coat protein (MS2 coat protein [2]; input ligand: FMN 200 uM) [nM] | apparent KD of MS2 coat protein (MS2 coat protein [2]; input ligand: none) [nM]
AAAAGAACCCGAGGAUAUGCGAAAUCACGAAGAGCAGAAGGCGGCUACAUGUGGAUCCGAGGACAUGAGGAUCACCCAUGUACG [Iszaaatce] | 165 | 321 |  | 
AAAUAAACCUUAGGAUAUGACUCCGAAACGGAGUCAGAAGGGAGGAUCACCCUCUUCAGCUCAGCGUCGAAAGACGCUGAGCAA [#SharedSequence ExNG1 - 21] (puzzle (switch architecture): Exclusion NG 1) |  |  | 63.3 | 72.9
AAAUAAAUUGAAGGAUAUCAGGGUGCACCUCAGUAAAACUGAGGUGCACCCUGAGAAGGUCGAGGAUCACCCGACCUAAAUAAA [#SharedSequence SLExNG1: 4-2] (puzzle (switch architecture): Small Loop Exclusion NG 1) |  |  | 8.37 | 7.63
AAAUGUACGAAGAAGGCUCUGCCACUGGCCGAGAGAGGAUAUUCACACAUGAGGAUCACCCAUGUCGAACAAAGUACACAGAGC [EternaBot1858] (puzzle (switch architecture): Inverted Same State NG 1) |  |  | 7.05 | 
AAUAAUUCUCAAGGAUAUGACUCCGAAACGGAGUCAGAAGGUGAGGAUCACCCACCUAGCUCAGCGUCGAAAGACGCUGAGCAA [#SharedSequence ExNG1 - 35] (puzzle (switch architecture): Exclusion NG 1) |  |  | 314 | 18.4
AAUAUAAAGAGCUGGCUUCUAAUAACAUGAGGAUCACCCAUGUAGGAUAUCAGCACGAUAAGUGCUGAGAAGGACAUCCAGCUC [Denovo 53] | 14.3 | 14.4 |  | 
ACACGUCGUGAGAAGGAGGAUCACCCUUUCGAAAGAAAUAGCCACCGUGAAAACGGUGGCAGAUUUUAGGAUAUCACGACGUGA [#SharedSequence - IExNG2: 9] (puzzle (switch architecture): Inverted Exclusion NG 2) |  |  | 113 | 88.3
AGAGCUGCUCAGAAGGAGGAUCACCCUUUCGAAAGAAAUACGGAGGCUGAAAAGCCUCCGAAAUCCUAGGAUAUGAGCAGCUCA [#SharedSequence - IExNG2: 3] (puzzle (switch architecture): Inverted Exclusion NG 2) |  |  | 7.43 | 791
AGGAGAAAUGUAGGAUAUAUAUAUAUAUAUGGGCAAAGCGCAUAUAUAUAUAUAGAAGGACAUGAGGAUCACCCAUGUUUCCCU [#Lowering the energy 11] (puzzle (switch architecture): Small Loop Exclusion NG 1) |  |  | 10.9 | 10.8
AUGCCGUGCAGAGCGCAACGGCGUACAUGAGGAUCACCCAUGUAGGAUAUACUACACAAAGUGUAGUAGAAGGACAUGCGACUG [Ex NG2 #93] | 185 | 56.7 |  | 
CCUGCACCUCAAGGAUAUCCAGUCGAAACGACUGGAGAAGGUGAGGAUCACCCAUCUAGCCUGACGAAAGUCAGGCAUGCAGGA [#SharedSequence - ExNG1-5] (puzzle (switch architecture): Exclusion NG 1) |  |  | 848 | 
CCUGCACUUCAAGGAUAUCCAGUCGAAACGACUGGAGAAGGUGAGGAUCACCCACCUAGCCUGACGAAAGUCAGGCAUGCAGGA [#SharedSequence - ExNG1-3] (puzzle (switch architecture): Exclusion NG 1) |  |  | 8.06 | 8.62
CGCUAUGACAUGAGGAUCACCCAUGUAUACAUGGGAAUGACGUAGGAUAUGCAGAAGAUUAAAGUGCAGAAGGACGGCUUUGCG [JR #DistanceClose #Static #NP SSNG3 Sub063] (puzzle (switch architecture): Same State NG 3) |  |  | 214 | 433
CUAUAGAUAUGAGGAUAUGUAUAUCCAACAUGAGGAUCACCCAUGUUGAGGAUCACCCAUGUAAAGCAGAAGGCAUAUCUAUAG [#HighScoreProbStacks] (puzzle (switch architecture): Same State NG 2) |  |  | 16.6 | 21.5
CUGUGACGGAUCCAGAAUUACAACAUGAGGAUCACCCAUGUGCAGGAUAUCGGGUUGAUAGGCGCCGAGAAGGGUAUGAUCACG [Ex NG2 #37] | 77.3 | 80 |  | 
GAACUCACGGCAUGCAUAUAAGCACAUGAGGAUCACCCAUGUCAGGAUAUCCACGGUCGUGCUUCGGAGAAGGGACAUGAGGCG [Lainxe] | 48 | 51.7 |  | 
GCCAUCGCAUGAGGAUAUGCUCCCGUUUCGGGAGCAGAAGGCAUGUCAUAAGACAUGAGGAUCACCCAUGUAGUUAAGAUGGCA (puzzle (switch architecture): Same State NG 1) |  |  | 11.7 | 285
GGACGUCACAUUAACAUGAGGAUCACCCAUGUCAAAAGACAUGAGGAUAUGGAUCCUAAUUGGAUCCAGAAGGCAUGGACGUCC [#HiddenHairpinInALoop - Fiskers NG3ss - 39] (puzzle (switch architecture): Same State NG 3) |  |  | 14.8 | 236
GGUACUCAAAGAGUACCAAUACGAACAUGAGGAUCACCCAUGUAGGAUAUGCUACUCAAAGAGUAGCAGAAGGACAUGUGUAAA [OmeiMod 10 - Jieux - Exclusion NG 3] | 567 | 92.4 |  | 
GUGGUUGUCGUAGGAUAUGUAGGAUAUUCCUACAUGAGGAUCACCCAUGUUCGCAUGGAAGAAGGACAGAAGGACGAUGACCAG [salish99_SSNG2_011 #endbits investigation] (puzzle (switch architecture): Same State NG 2) |  |  | 9.85 | 855
UAAGUCGGAAGAUAAUAAUGAAUACAUGAGGAUCACCCAUGUAAGGAUAUGCAGUGGAAUACACUGCAGAAGGUACAAACCGAC [Exclusion NG 3/17-A2] | 24.6 | 15.2 |  | 
UCAUACAUGAGGAUCACCCAUGACAUGAGGAUCACCCAUGUGCAGGAUAUACGUGAUAUAAUAUAGUAGAAGGGCAGACUAUAA [LRO006_Exclusion NG 3] | 53 | 39.8 |  | 
UCUUAAAUGAUCCUAUUUACCAACAUGAGGAUCACCCAUGUGCAGGAUAUGCUAAAGAUAAAUAAGCAGAAGGGCAAUAACCGC [JR_ExcNG3_Sub007] | 608 | 127 |  | 
UGUAUUAAUGGAGGAUAUCAAUAUCAAACAUGAGGAUCACCCAUGUUGAGGAUCACCCAUGUCCAUGAGAAGGCUGGCGUACGU [My 19th design] (puzzle (switch architecture): Same State NG 2) |  |  | 10.9 | 9.37
